In the supplement of paper PMC6379048:

Experiments:
Test in all cases: EC50 of free RNA motif oligo competing protein binding to immobilised probe
CMTR1 = target: T1, CMTR1 (UniProt Q8N1G2)
T1 sequence: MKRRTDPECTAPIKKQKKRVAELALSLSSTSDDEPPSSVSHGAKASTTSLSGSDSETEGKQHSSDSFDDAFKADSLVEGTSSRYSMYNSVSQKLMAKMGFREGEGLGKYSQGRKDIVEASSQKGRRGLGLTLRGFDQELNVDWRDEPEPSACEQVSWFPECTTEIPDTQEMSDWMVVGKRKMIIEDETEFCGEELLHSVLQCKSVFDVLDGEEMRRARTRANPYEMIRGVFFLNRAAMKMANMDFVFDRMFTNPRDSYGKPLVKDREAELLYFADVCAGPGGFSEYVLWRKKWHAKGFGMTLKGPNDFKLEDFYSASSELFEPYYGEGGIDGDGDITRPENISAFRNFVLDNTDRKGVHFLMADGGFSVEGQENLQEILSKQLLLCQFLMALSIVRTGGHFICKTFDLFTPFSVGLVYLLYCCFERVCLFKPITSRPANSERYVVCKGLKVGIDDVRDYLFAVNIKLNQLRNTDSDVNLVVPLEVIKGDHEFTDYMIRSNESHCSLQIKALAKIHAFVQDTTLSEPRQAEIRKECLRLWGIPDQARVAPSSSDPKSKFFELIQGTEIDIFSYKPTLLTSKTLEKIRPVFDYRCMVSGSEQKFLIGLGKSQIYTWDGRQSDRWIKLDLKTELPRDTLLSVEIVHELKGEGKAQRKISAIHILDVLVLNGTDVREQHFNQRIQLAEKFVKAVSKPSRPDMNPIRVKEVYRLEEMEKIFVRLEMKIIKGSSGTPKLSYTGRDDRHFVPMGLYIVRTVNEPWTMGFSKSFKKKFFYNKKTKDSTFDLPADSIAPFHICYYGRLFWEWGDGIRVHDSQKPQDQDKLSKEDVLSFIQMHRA
In short: (§1)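 To obtain EC50, data were fitted with a four-parameter log-logistic model; Kd was then EC50 multiplied by a protein-dependent depletion factor. Beforehand, free RNA oligos (0 nM to 30 μM) were pre-incubated with HEK293-FT lysate (2.5 mg protein/well) for 1 h at 4°C. The lysate then spent 30 min at 4°C with the same 5′-amino-C6 oligos coupled to NHS-Sepharose beads, and bound proteins were quantified by label-free LC-MS/MS, normalised to the control.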

CSTF3 = target: T2, CSTF3 (UniProt Q12996)
T2 sequence: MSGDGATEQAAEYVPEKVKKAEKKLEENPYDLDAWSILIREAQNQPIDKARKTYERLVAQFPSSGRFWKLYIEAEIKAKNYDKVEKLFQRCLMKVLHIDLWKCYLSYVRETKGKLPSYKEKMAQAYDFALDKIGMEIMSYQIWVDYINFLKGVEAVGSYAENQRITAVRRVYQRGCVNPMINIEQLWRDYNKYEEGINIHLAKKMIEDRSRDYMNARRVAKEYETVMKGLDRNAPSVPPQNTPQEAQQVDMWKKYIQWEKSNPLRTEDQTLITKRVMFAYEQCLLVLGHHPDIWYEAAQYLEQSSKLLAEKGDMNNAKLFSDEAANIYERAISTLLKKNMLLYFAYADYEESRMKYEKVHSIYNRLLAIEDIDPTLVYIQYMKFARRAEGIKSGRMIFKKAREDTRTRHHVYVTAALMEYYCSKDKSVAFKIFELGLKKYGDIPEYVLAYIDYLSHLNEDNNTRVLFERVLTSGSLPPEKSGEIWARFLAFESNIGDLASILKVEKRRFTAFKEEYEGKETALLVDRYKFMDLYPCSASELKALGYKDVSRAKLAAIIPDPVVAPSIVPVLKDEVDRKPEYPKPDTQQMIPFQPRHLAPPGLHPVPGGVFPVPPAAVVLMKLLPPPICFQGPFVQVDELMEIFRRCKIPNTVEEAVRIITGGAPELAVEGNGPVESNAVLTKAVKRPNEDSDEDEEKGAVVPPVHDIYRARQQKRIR
In short: as §1

DAZAP1 = target: T3, DAZAP1 (UniProt Q96EP5)
T3 sequence: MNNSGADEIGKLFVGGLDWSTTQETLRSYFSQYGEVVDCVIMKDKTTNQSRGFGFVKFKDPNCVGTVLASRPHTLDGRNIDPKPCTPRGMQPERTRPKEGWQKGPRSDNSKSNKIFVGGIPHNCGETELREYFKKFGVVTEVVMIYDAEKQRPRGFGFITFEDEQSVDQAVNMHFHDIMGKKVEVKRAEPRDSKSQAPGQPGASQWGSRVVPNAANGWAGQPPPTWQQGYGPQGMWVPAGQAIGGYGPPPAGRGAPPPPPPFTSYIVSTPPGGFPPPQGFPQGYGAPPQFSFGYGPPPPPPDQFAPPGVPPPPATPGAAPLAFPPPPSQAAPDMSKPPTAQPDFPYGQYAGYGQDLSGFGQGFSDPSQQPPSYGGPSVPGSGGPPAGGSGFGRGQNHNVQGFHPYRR
In short: as §1

PABPC1 = PABPC1 (UniProt P11940)
Sequence of PABPC1 (P11940 whole entry): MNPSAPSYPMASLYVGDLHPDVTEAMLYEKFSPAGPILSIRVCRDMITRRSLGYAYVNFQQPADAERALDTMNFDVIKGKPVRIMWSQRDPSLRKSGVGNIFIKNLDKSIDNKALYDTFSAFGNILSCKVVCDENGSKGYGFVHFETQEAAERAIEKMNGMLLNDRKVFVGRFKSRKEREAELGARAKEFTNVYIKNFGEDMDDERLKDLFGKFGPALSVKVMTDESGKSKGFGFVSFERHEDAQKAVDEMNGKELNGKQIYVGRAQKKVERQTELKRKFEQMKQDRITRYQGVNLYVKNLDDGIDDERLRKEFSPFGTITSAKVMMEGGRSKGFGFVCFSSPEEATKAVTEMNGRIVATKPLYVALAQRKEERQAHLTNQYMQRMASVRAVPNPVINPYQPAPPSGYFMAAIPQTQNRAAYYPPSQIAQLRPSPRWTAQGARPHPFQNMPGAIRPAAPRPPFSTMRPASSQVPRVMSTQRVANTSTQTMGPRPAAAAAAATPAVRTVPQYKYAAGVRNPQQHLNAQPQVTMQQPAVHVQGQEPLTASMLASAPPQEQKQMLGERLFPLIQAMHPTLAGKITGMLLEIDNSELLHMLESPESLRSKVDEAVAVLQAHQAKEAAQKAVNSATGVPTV
In short: as §1

RBMS1 = target: T4, RBMS1 (UniProt P29558)
T4 sequence: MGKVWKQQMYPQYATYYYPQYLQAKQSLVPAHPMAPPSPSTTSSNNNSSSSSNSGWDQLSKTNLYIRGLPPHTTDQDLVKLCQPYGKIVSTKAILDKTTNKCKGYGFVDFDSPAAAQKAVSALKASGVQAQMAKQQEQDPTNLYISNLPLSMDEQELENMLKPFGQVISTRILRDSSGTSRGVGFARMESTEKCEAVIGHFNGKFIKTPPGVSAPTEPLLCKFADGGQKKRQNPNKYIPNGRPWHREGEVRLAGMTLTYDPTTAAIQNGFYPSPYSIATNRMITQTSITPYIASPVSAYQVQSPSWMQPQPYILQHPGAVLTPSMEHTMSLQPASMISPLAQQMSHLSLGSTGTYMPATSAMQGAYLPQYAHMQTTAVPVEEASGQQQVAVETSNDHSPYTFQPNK
In short: as §1

| Sequence | EC50 (CMTR1) [nM] | EC50 (CSTF3) [nM] | EC50 (DAZAP1) [nM] | EC50 (PABPC1) [nM] | EC50 (RBMS1) [nM] |
| --- | --- | --- | --- | --- | --- |
| AAUAAA | 298 | 80.7 | 1240 | 10100 | 1570 |
| CUGUCCU |  |  |  | 199 |  |
| UAUUUAU | 1200 | 600 | 1220 |  | 458 |
